Here are results for one protein from paper PMC4297981 (Scientific Reports, 2015).

This data set concerns the molecule itself. Description: SDS-PAGE.

B1: integrin β1a-TMC variant L749C (transmembrane and cytoplasmic domains, V717-K798, cys-less background), reconstituted in POPC/POPG liposomes (domain or fragment, human, UniProt P05556-1 717-798, looked up)
chain: VVENPESPTGPDIIPIVAGVVAGIVLIGLALLCIWKLLMIIHDRREFAKFEKEKMNAKWDTGENPIYKSAVTTVVNPKYEGK
As to B1, the binding result is reported as “binds”.
